According to US20240116985A1 (published 2024):
Starred links: 1 amine or outer side, 2 acyl side, 3 side chain; linkers in the order of their positions; H or OH if unused. Positions of bridges follow the written chain, without caps; N, C: chain ends. Non-standard residues stand in square brackets, D forms with d. Primed or numbered codes have the meaning given here. B5(16) = 2-amino-2-(pent-4-en-1-yl)hept-6-enoic acid = 2,2-bis(4-pentenyl)glycine (stitching residue), C=CCCCC(CCCC=C)(N[*:1])C(=O)[*:2]; B5(21) = 2-amino-2-(pent-4-en-1-yl)hept-6-enoic acid, bis(4-pentenyl)glycine (stitching residue), C=CCCCC(CCCC=C)(N[*:1])C(=O)[*:2]; B5(9) = 2-amino-2-(pent-4-en-1-yl)hept-6-enoic acid (2,2-bis(4-pentenyl)glycine), C=CCCCC(CCCC=C)(N[*:1])C(=O)[*:2]; (NHCyBu)AsnR = N4-cyclobutyl-L-asparagine, O=C(C[C@H](N[*:1])C(=O)[*:2])NC1CCC1; Bta = N[C@@H](Cc1csc2ccccc12)C(=O)O; αAllylPro = C=CC[C@@]1(C(=O)O)CCCN1; S8 = C=CCCCCCC[C@](C)(N)C(=O)O

T1: full-length beta-Catenin (Uniprot ID P35222) (Homo sapiens (Human), UniProt P35222 2-781)
T1 construct: Tags of the recombinant protein are not described for the FP assay; also called bCat; B-Catenin
T1 sequence: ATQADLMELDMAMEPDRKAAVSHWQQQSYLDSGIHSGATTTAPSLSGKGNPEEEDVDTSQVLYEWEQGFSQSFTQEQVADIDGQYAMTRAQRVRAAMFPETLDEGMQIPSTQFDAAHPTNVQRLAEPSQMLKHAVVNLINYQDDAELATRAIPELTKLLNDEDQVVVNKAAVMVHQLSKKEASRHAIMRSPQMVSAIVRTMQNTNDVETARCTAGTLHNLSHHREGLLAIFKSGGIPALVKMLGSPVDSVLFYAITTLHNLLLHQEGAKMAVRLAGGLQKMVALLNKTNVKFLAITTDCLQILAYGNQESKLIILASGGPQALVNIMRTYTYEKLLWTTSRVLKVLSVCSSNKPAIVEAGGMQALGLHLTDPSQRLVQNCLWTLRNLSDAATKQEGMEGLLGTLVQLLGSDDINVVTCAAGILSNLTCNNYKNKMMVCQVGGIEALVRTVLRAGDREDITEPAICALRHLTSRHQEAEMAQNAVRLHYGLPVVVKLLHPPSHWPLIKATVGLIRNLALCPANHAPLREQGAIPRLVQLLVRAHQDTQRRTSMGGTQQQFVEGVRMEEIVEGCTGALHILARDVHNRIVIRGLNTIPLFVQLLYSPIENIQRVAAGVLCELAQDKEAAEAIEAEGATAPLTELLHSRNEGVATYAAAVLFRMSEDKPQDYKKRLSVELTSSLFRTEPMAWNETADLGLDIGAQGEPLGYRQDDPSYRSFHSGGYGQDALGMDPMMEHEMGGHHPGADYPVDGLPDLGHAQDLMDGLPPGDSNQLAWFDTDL

T2: full-length beta-Catenin (Uniprot ID P35222) (Homo sapiens (Human), UniProt P35222 1-781)
T2 construct: also called bCat; B-Catenin
T2 sequence: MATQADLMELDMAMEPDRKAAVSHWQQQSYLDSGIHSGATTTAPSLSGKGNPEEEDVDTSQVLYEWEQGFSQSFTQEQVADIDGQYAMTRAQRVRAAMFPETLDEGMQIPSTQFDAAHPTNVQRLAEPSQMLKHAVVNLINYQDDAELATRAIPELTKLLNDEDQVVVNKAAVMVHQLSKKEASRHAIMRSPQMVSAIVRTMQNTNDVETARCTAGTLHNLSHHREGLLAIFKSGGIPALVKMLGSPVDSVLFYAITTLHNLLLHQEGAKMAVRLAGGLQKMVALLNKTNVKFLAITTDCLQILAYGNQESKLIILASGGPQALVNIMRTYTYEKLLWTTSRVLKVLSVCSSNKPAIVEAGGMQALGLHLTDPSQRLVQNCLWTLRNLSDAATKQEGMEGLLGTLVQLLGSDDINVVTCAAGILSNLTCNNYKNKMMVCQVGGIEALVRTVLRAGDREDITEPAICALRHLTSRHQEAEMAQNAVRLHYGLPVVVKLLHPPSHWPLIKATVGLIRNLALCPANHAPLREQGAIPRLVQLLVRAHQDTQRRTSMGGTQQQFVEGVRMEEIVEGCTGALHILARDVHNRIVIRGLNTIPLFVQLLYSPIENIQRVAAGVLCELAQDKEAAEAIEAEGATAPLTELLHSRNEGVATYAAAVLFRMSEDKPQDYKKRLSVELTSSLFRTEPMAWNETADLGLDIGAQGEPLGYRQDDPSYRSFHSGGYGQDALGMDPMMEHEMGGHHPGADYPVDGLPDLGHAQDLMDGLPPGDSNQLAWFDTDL


Molecular target: T1, full-length beta-Catenin (Uniprot ID …)
Assay: fluorescence polarization competition; full-length beta-catenin, competitor 5FAM-TCF4 10-53
Procedure: (§1) The plate was incubated protected from light for 60 minutes at 20° C. prior to read. Reads were performed on a CLARIOstar plate reader (BMG Labtech) in duplicate, and data were fitted to a 1:1 binding model with hill slope using an in-house script. All provided concentrations are final concentrations.

| Binder | IC50 |
| --- | --- |
| XDIXDEAAFQXFXP (not fully specified; As printed: Ac-PL3-Asp-Ile-B5-Asp-Glu-Ala-Ala-Phe-Gln-S8-Phe-BztA-Pro-NH2; N-terminal Ac, C-terminal NH2; PL3 (1), B5 (4), S8 (11), BztA (13); staples PL3-B5 and B5-S8 by olefin metathesis, Stapled peptide composition; also called Ac-PL3-Asp-Ile-B5-Asp-Glu-Ala-Ala-Phe-Gln-S8-Phe-BztA-Pro-NH2) [I-637] | 5000 nM |
| Ac-[αAllylPro]DI[B5(16)]DEAAFQ[S8]F[Bta]Y-NH2 (staple 1-4, 4-11, Stapled peptide composition; also called Ac-PL3-Asp-Ile-B5-Asp-Glu-Ala-Ala-Phe-Gln-S8-Phe-BztA-Tyr-NH2) [I-636] | 198 nM |
| XDIXDEAAFQXFXS (not fully specified; As printed: Ac-PL3-Asp-Ile-B5-Asp-Glu-Ala-Ala-Phe-Gln-S8-Phe-BztA-Ser-NH2; N-terminal Ac, C-terminal NH2; PL3 (1), B5 (4), S8 (11), BztA (13); staples PL3-B5 and B5-S8 by olefin metathesis, Stapled peptide composition; also called Ac-PL3-Asp-Ile-B5-Asp-Glu-Ala-Ala-Phe-Gln-S8-Phe-BztA-Ser-NH2) [I-639] | 109 nM |
| Ac-[αAllylPro]DI[B5(16)]DEAAFQ[S8]F[Bta]L-NH2 (staple 1-4, 4-11, Stapled peptide composition; also called Ac-PL3-Asp-Ile-B5-Asp-Glu-Ala-Ala-Phe-Gln-S8-Phe-BztA-Leu-NH2) [I-634] | 425 nM |
| Ac-[αAllylPro]DI[B5(16)]DEAAFQ[S8]F[Bta]F-NH2 (staple 1-4, 4-11, Stapled peptide composition; also called Ac-PL3-Asp-Ile-B5-Asp-Glu-Ala-Ala-Phe-Gln-S8-Phe-BztA-Phe-NH2) [I-635] | 171 nM |
| Ac-[αAllylPro]DI[B5(16)]DEAAFQ[S8]F[Bta]R-NH2 (staple 1-4, 4-11, Stapled peptide composition; also called Ac-PL3-Asp-Ile-B5-Asp-Glu-Ala-Ala-Phe-Gln-S8-Phe-BztA-Arg-NH2) [I-633] | 88 nM |
| XDIXDEAAFQXFXP (not fully specified; As printed: Ac-PL3-Asp-Ile-B5-Asp-Glu-Ala-Ala-Phe-Gln-S8-Phe-BztA-Pro-NH2; N-terminal Ac, C-terminal NH2; PL3 (1), B5 (4), S8 (11), BztA (13); staples PL3-B5 and B5-S8 by olefin metathesis, Stapled peptide composition; also called Ac-PL3-Asp-Ile-B5-Asp-Glu-Ala-Ala-Phe-Gln-S8-Phe-BztA-Pro-NH2) [I-638] | 3880 nM |
| Ac-[αAllylPro]DI[B5(9)]DELAFQ[S8]F[Bta]Q-NH2 (staple 1-4, 4-11, Stapled peptide composition; also called Ac-PL3-Asp-Ile-B5-Asp-Glu-Leu-Ala-Phe-Gln-S8-Phe-BztA-Gln-NH2) [I-647] | 445 nM |

Next, values leading:

| IC50 | Binder |
| --- | --- |
| 395 nM | Ac-[αAllylPro]DI[B5(9)]DEAAFQ[S8]F[Bta]V-NH2 (staple 1-4, 4-11, Stapled peptide composition; also called Ac-PL3-Asp-Ile-B5-Asp-Glu-Ala-Ala-Phe-Gln-S8-Phe-BztA-Val-NH2) [I-645] |
| 122 nM | XDIXDEAAFQXFXT (not fully specified; As printed: Ac-PL3-Asp-Ile-B5-Asp-Glu-Ala-Ala-Phe-Gln-S8-Phe-BztA-Thr-NH2; N-terminal Ac, C-terminal NH2; PL3 (1), B5 (4), S8 (11), BztA (13); staples PL3-B5 and B5-S8 by olefin metathesis, Stapled peptide composition; also called Ac-PL3-Asp-Ile-B5-Asp-Glu-Ala-Ala-Phe-Gln-S8-Phe-BztA-Thr-NH2) [I-641] |
| 808 nM | Ac-[αAllylPro]DI[B5(9)]DEAAFQ[S8]F[Bta]W-NH2 (staple 1-4, 4-11, Stapled peptide composition; also called Ac-PL3-Asp-Ile-B5-Asp-Glu-Ala-Ala-Phe-Gln-S8-Phe-BztA-Trp-NH2) [I-644] |
| 87 nM | XDIXDEAAFQXFXS (not fully specified; As printed: Ac-PL3-Asp-Ile-B5-Asp-Glu-Ala-Ala-Phe-Gln-S8-Phe-BztA-Ser-NH2; N-terminal Ac, C-terminal NH2; PL3 (1), B5 (4), S8 (11), BztA (13); staples PL3-B5 and B5-S8 by olefin metathesis, Stapled peptide composition; also called Ac-PL3-Asp-Ile-B5-Asp-Glu-Ala-Ala-Phe-Gln-S8-Phe-BztA-Ser-NH2) [I-640] |
| 461 nM | Ac-[αAllylPro]DI[B5(9)]DEAAFQ[S8]F[Bta]V-NH2 (staple 1-4, 4-11, Stapled peptide composition; also called Ac-PL3-Asp-Ile-B5-Asp-Glu-Ala-Ala-Phe-Gln-S8-Phe-BztA-Val-NH2) [I-646] |
| 958 nM | Ac-[αAllylPro]DI[B5(9)]DEAAFQ[S8]F[Bta]W-NH2 (staple 1-4, 4-11, Stapled peptide composition; also called Ac-PL3-Asp-Ile-B5-Asp-Glu-Ala-Ala-Phe-Gln-S8-Phe-BztA-Trp-NH2) [I-643] |
| 118 nM | XDIXDEAAFQXFXT (not fully specified; As printed: Ac-PL3-Asp-Ile-B5-Asp-Glu-Ala-Ala-Phe-Gln-S8-Phe-BztA-Thr-NH2; N-terminal Ac, C-terminal NH2; PL3 (1), B5 (4), S8 (11), BztA (13); staples PL3-B5 and B5-S8 by olefin metathesis, Stapled peptide composition; also called Ac-PL3-Asp-Ile-B5-Asp-Glu-Ala-Ala-Phe-Gln-S8-Phe-BztA-Thr-NH2) [I-642] |
| 137 nM | Ac-[αAllylPro]DI[B5(16)]DEFAFQ[S8]F[Bta]Q-NH2 (staple 1-4, 4-11, Stapled peptide composition; also called Ac-PL3-Asp-Ile-B5-Asp-Glu-Phe-Ala-Phe-Gln-S8-Phe-BztA-Gln-NH2) [I-650] |
| 209 nM | Ac-[αAllylPro]DI[B5(9)]DEFAFQ[S8]F[Bta]Q-NH2 (staple 1-4, 4-11, Stapled peptide composition; also called Ac-PL3-Asp-Ile-B5-Asp-Glu-Phe-Ala-Phe-Gln-S8-Phe-BztA-Gln-NH2) [I-649] |
| 186 nM | Ac-[αAllylPro]DI[B5(16)]DESAFQ[S8]F[Bta]Q-NH2 (staple 1-4, 4-11, Stapled peptide composition; also called Ac-PL3-Asp-Ile-B5-Asp-Glu-Ser-Ala-Phe-Gln-S8-Phe-BztA-Gln-NH2) [I-651] |
| 233 nM | Ac-[αAllylPro]DI[B5(9)]DELAFQ[S8]F[Bta]Q-NH2 (staple 1-4, 4-11, Stapled peptide composition; also called Ac-PL3-Asp-Ile-B5-Asp-Glu-Leu-Ala-Phe-Gln-S8-Phe-BztA-Gln-NH2) [I-648] |

Molecular target: T2, full-length beta-Catenin (Uniprot ID …)
Assay: fluorescence polarization competition; full-length beta-catenin with 5FAM-labeled TCF4 residues 10-53 probe as competitor
Procedure: as §1

| IC50 | Binder |
| --- | --- |
| 5000 nM | Ac-[αAllylPro]DA[B5(21)][(NHCyBu)AsnR]DAAFV[S8]F[Bta]Q-NH2 (staple 1-4, 4-11) [I-539] |
